B1: SLC19A2 (parent)
chain: FASLRPSEPFLTPYLLGPDKNLTE
B2: POMT2 (parent)
chain: LRGGGQVLLGWTLHYFPFFLMGRV

Variants of: B1
Experiment: protein stability index of a GFP-peptide fusion (GPS, HEK-293T) (PSI 1-6); higher = more stable
Conditions: c terminus: a fixed tail appended
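Also: lentivirally expressed fusions sorted by FACS into six bins by GFP to DsRed ratio, PSI derived from sequencing read proportions per bin multiplied by bin number.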

Q: With FAPLRPSEPFLTPYLLGPDKNLTE as the variant, how does the protein stability index read?
A: The protein stability index was 2.43.

Q: Which protein stability index does the source give for FANLRPSEPFLTPYLLGPDKNLTE here?
A: The protein stability index was 2.78.

Q: For FAFLRPSEPFLTPYLLGPDKNLTE, which protein stability index is on record?
A: Its protein stability index is 1.93.

Q: With FATLRPSEPFLTPYLLGPDKNLTE as the variant, how does the protein stability index read?
A: The protein stability index was 2.83.

Q: Which protein stability index does the source give for FASLRPSEPFLTSYLLGPDKNLTE here?
A: Its protein stability index is 1.99.

Q: Which protein stability index does the source give for FASLRPSEPFLTPYLLGPDTNLTE here?
A: The protein stability index was 1.45.

Q: For FASLDPSEPFLTPYLLGPDKNLTE, which protein stability index is on record?
A: The protein stability index was 1.73.

Q: Which protein stability index does the source give for FASLGPSEPFLTPYLLGPDKNLTE here?
A: Its protein stability index is 1.57.

Q: Which protein stability index does the source give for FYSLRPSEPFLTPYLLGPDKNLTE here?
A: The protein stability index was 2.05.

Q: Which protein stability index does the source give for FASLRKSEPFLTPYLLGPDKNLTE here?
A: Its protein stability index is 2.13.

Q: Which protein stability index does the source give for FASLRASEPFLTPYLLGPDKNLTE here?
A: Its protein stability index is 1.12.

Q: Which protein stability index does the source give for FASLRVSEPFLTPYLLGPDKNLTE here?
A: Its protein stability index is 1.9.

Q: With FASLRPSEPFLTPYLLGPDKFLTE as the variant, how does the protein stability index read?
A: The protein stability index was 1.67.

Q: Which protein stability index does the source give for FASLRPSEPFLTPYLLVPDKNLTE here?
A: The protein stability index was 1.89.

Q: Which protein stability index does the source give for FASLRPSEPFLTPPLLGPDKNLTE here?
A: The protein stability index was 3.25.

Q: Which protein stability index does the source give for FASLRPSEPFLTPHLLGPDKNLTE here?
A: Its protein stability index is 2.57.

Q: With FASLRPSEPFLTPTLLGPDKNLTE as the variant, how does the protein stability index read?
A: Its protein stability index is 2.58.

Q: Which protein stability index does the source give for FASLRPSSPFLTPYLLGPDKNLTE here?
A: Its protein stability index is 1.98.

Q: Which protein stability index does the source give for FASLRPSEGFLTPYLLGPDKNLTE here?
A: Its protein stability index is 2.18.

Q: For FASLRPPEPFLTPYLLGPDKNLTE, which protein stability index is on record?
A: The protein stability index was 1.87.

Q: Which protein stability index does the source give for FASLRPQEPFLTPYLLGPDKNLTE here?
A: Its protein stability index is 1.76.

Q: For FASLRPSEPFLTPYLLGPDKNWTE, which protein stability index is on record?
A: The protein stability index was 1.98.

Q: Which protein stability index does the source give for FASLRPSEPFLTPYLLGPDKNRTE here?
A: The protein stability index was 1.92.

Q: With FASLRPSEPRLTPYLLGPDKNLTE as the variant, how does the protein stability index read?
A: Its protein stability index is 2.94.

Q: Which protein stability index does the source give for YASLRPSEPFLTPYLLGPDKNLTE here?
A: The protein stability index was 1.5.

Q: For WASLRPSEPFLTPYLLGPDKNLTE, which protein stability index is on record?
A: Its protein stability index is 2.77.

Q: With CASLRPSEPFLTPYLLGPDKNLTE as the variant, how does the protein stability index read?
A: The protein stability index was 2.8.

Q: For KASLRPSEPFLTPYLLGPDKNLTE, which protein stability index is on record?
A: Its protein stability index is 3.79.

Q: For FASLRPSEPFLTPYLLGADKNLTE, which protein stability index is on record?
A: Its protein stability index is 1.65.

Q: With FASLRPSEPFLNPYLLGPDKNLTE as the variant, how does the protein stability index read?
A: The protein stability index was 2.05.

Q: For FASLRPSEPFLYPYLLGPDKNLTE, which protein stability index is on record?
A: Its protein stability index is 2.24.

Q: With FASLRPSEPFLTPYLHGPDKNLTE as the variant, how does the protein stability index read?
A: Its protein stability index is 2.86.

Q: For FASLRPSEPFLTPYLGGPDKNLTE, which protein stability index is on record?
A: Its protein stability index is 2.85.

Q: With FASLRPSEPFLTPYLLGPDKNLVE as the variant, how does the protein stability index read?
A: The protein stability index was 1.29.

Q: With FASLRPSEPFLTPYLLGPDKNLYE as the variant, how does the protein stability index read?
A: The protein stability index was 2.27.

Q: Which protein stability index does the source give for FASLRPSEPFLTPYMLGPDKNLTE here?
A: The protein stability index was 2.23.

Q: With FASLRPSEPFLTPYLLGPPKNLTE as the variant, how does the protein stability index read?
A: The protein stability index was 1.67.

Q: With FASLRPSEPFLTPYLLGPLKNLTE as the variant, how does the protein stability index read?
A: Its protein stability index is 1.58.

Q: For FASLRPSEPFLTPYLLGPGKNLTE, which protein stability index is on record?
A: The protein stability index was 1.75.

Variants of: B2
Experiment: as above
Conditions: c terminus: a fixed tail appended

Q: For LRGGDQVLLGWTLHYFPFFLMGRV, which protein stability index is on record?
A: The protein stability index was 3.03.

Q: Which protein stability index does the source give for LRGGYQVLLGWTLHYFPFFLMGRV here?
A: Its protein stability index is 3.6.

Q: With LRGGEQVLLGWTLHYFPFFLMGRV as the variant, how does the protein stability index read?
A: Its protein stability index is 3.02.

Q: Which protein stability index does the source give for LRGGIQVLLGWTLHYFPFFLMGRV here?
A: The protein stability index was 4.58.

Q: With LRGGTQVLLGWTLHYFPFFLMGRV as the variant, how does the protein stability index read?
A: The protein stability index was 2.95.

Q: For LRGGNQVLLGWTLHYFPFFLMGRV, which protein stability index is on record?
A: The protein stability index was 3.2.

Q: With LRGGGQVLLGWTLHKFPFFLMGRV as the variant, how does the protein stability index read?
A: Its protein stability index is 2.92.

Q: With LRGGGQVLLGWTLHEFPFFLMGRV as the variant, how does the protein stability index read?
A: The protein stability index was 2.31.

Q: With LRGGGQVLLGWTLHDFPFFLMGRV as the variant, how does the protein stability index read?
A: Its protein stability index is 1.72.

Q: Which protein stability index does the source give for LRGGGQVLLGWTLHIFPFFLMGRV here?
A: The protein stability index was 4.09.

Q: Which protein stability index does the source give for LRGGGQVLLGWTLHRFPFFLMGRV here?
A: Its protein stability index is 2.02.

Q: With LRGGGQVLLGWTLHTFPFFLMGRV as the variant, how does the protein stability index read?
A: Its protein stability index is 1.39.

Q: Which protein stability index does the source give for LRGGGQVLLGWTLHYFRFFLMGRV here?
A: Its protein stability index is 3.18.

Q: With LRGGGQVLLGWTLHYFDFFLMGRV as the variant, how does the protein stability index read?
A: Its protein stability index is 4.4.

Q: For LRGGGQVLLGWTLHYFQFFLMGRV, which protein stability index is on record?
A: Its protein stability index is 4.16.

Q: Which protein stability index does the source give for LRGGGQVLLGWTLHYFVFFLMGRV here?
A: Its protein stability index is 2.54.

Q: With LRGGGQVLLGWTLHYFKFFLMGRV as the variant, how does the protein stability index read?
A: Its protein stability index is 2.55.

Q: With LRGGGQVLLGWTLHYFFFFLMGRV as the variant, how does the protein stability index read?
A: The protein stability index was 2.59.

Q: For LRGGGQVLLGWTLHYFCFFLMGRV, which protein stability index is on record?
A: Its protein stability index is 2.18.

Q: Which protein stability index does the source give for LRGGGQVLLGWTLHYFWFFLMGRV here?
A: The protein stability index was 3.06.

Q: Which protein stability index does the source give for LRGGGQVLLGWTLHYFIFFLMGRV here?
A: Its protein stability index is 2.09.

Q: With LRGGGQVLLGWTLHYFMFFLMGRV as the variant, how does the protein stability index read?
A: Its protein stability index is 4.38.

Q: With LRRGGQVLLGWTLHYFPFFLMGRV as the variant, how does the protein stability index read?
A: The protein stability index was 2.12.

Q: Which protein stability index does the source give for LRNGGQVLLGWTLHYFPFFLMGRV here?
A: Its protein stability index is 2.48.

Q: With LRSGGQVLLGWTLHYFPFFLMGRV as the variant, how does the protein stability index read?
A: Its protein stability index is 1.68.

Q: With LRYGGQVLLGWTLHYFPFFLMGRV as the variant, how does the protein stability index read?
A: The protein stability index was 4.15.

Q: Which protein stability index does the source give for LRMGGQVLLGWTLHYFPFFLMGRV here?
A: Its protein stability index is 1.82.

Q: For LRQGGQVLLGWTLHYFPFFLMGRV, which protein stability index is on record?
A: The protein stability index was 2.94.

Q: With LRWGGQVLLGWTLHYFPFFLMGRV as the variant, how does the protein stability index read?
A: The protein stability index was 5.12.

Q: For LRGGGQVLLGWTLHYFPFFLMQRV, which protein stability index is on record?
A: Its protein stability index is 1.28.

Q: For LRGGGQVLLGWTLHYFPFFLMARV, which protein stability index is on record?
A: Its protein stability index is 3.58.

Q: With LRGGGQVLLGWTLHYFPFFLMDRV as the variant, how does the protein stability index read?
A: The protein stability index was 3.12.

Q: With LRGGGQVLLGWTLHYFPFFLMPRV as the variant, how does the protein stability index read?
A: Its protein stability index is 2.64.

Q: With LDGGGQVLLGWTLHYFPFFLMGRV as the variant, how does the protein stability index read?
A: The protein stability index was 3.49.

Q: For LQGGGQVLLGWTLHYFPFFLMGRV, which protein stability index is on record?
A: Its protein stability index is 1.79.

Q: With LYGGGQVLLGWTLHYFPFFLMGRV as the variant, how does the protein stability index read?
A: The protein stability index was 2.82.

Q: Which protein stability index does the source give for LTGGGQVLLGWTLHYFPFFLMGRV here?
A: The protein stability index was 1.36.

Q: Which protein stability index does the source give for LWGGGQVLLGWTLHYFPFFLMGRV here?
A: The protein stability index was 3.48.

Q: For LPGGGQVLLGWTLHYFPFFLMGRV, which protein stability index is on record?
A: The protein stability index was 2.6.

Q: With LKGGGQVLLGWTLHYFPFFLMGRV as the variant, how does the protein stability index read?
A: The protein stability index was 2.04.

Q: With LLGGGQVLLGWTLHYFPFFLMGRV as the variant, how does the protein stability index read?
A: The protein stability index was 2.63.

Q: Which protein stability index does the source give for LRGGGQVLLGWTLHYFPFFLWGRV here?
A: Its protein stability index is 4.41.

Q: With LRGGGQVLLGWTLHYFPFFLAGRV as the variant, how does the protein stability index read?
A: The protein stability index was 3.45.

Q: Which protein stability index does the source give for LRGGGQVLLGWTLHYFPFFLSGRV here?
A: Its protein stability index is 2.79.

Q: With LRGGGQVLLGWTLHYFPFFLNGRV as the variant, how does the protein stability index read?
A: Its protein stability index is 1.43.

Q: For LRGGGQMLLGWTLHYFPFFLMGRV, which protein stability index is on record?
A: Its protein stability index is 2.07.

Q: For LRGGGQTLLGWTLHYFPFFLMGRV, which protein stability index is on record?
A: The protein stability index was 1.32.

Q: With LRGGGQWLLGWTLHYFPFFLMGRV as the variant, how does the protein stability index read?
A: The protein stability index was 2.36.

Q: For LRGGGQQLLGWTLHYFPFFLMGRV, which protein stability index is on record?
A: Its protein stability index is 1.21.

Q: With LRGGGQRLLGWTLHYFPFFLMGRV as the variant, how does the protein stability index read?
A: The protein stability index was 2.7.

Q: For LRGGGQCLLGWTLHYFPFFLMGRV, which protein stability index is on record?
A: The protein stability index was 1.26.

Q: For LRGGGQYLLGWTLHYFPFFLMGRV, which protein stability index is on record?
A: The protein stability index was 4.03.

Q: Which protein stability index does the source give for LRGGGQKLLGWTLHYFPFFLMGRV here?
A: Its protein stability index is 4.17.

Q: Which protein stability index does the source give for LRGGGQVLLGWTLHYFPVFLMGRV here?
A: The protein stability index was 3.11.

Q: Which protein stability index does the source give for LRGGGQVLLGWTLHYFPNFLMGRV here?
A: The protein stability index was 2.04.

From the supplement of paper PMC10567573
